Test results from publication PMC9309405, “The integration of AlphaFold-predicted and crystal structures of human trans-3-hydroxy-L-proline dehydratase reveals a regulatory catalytic mechanism” (Computational and Structural Biotechnology Journal, 2022).

Substrate: O=C(O)[C@H]1NCC[C@@H]1O
Assay: purified protein
Assay type: biochemical, Homo sapiens
Details: oxidizing conditions, without DTT; 1xPBS; substrate-inhibition fit; with 1 mM DTT a separate lower KM is reported; substrate named only hydroxyproline in methods

B1: human trans-3-Hydroxy-L-proline dehydratase (hL3HYPDH) (Homo sapiens) (protein)
chain: MESALAVPRLPPHDPGTPVLSVVDMHTGGEPLRIVLAGCPEVSGPTLLAKRRYMRQHLDHVRRRLMFEPRGHRDMYGAVLVPSELPDAHLGVLFLHNEGYSSMCGHAVLALGRFALDFGLVPAPPAGTREARVNIHCPCGLVTAFVACEDGRSHGPVRFHSVPAFVLATDLMVDVPGHGKVMVDIAYGGAFYAFVTAEKLGLDICSAKTRDLVDAASAVTEAVKAQFKINHPDSEDLAFLYGTILTDGKDAYTKEPTTNICVFADEQVDRSPTGSGVTARIALQYHKGLLELNQMRAFKSSATGSVFTGKAVREAKCGDFKAVIVEVSGQAHYTGTASFIIEDDDPLRDGFLLK
notes: recombinant, cloned in pET28b, E. coli BL21(DE3), His-Trap then Superdex 200; homodimer; crystal model residues 4-354; Cys104-Cys137 intramolecular disulphide
For B1, the Km was 416.7 µM.
